Results as given in patent US20150093336A1 (VIB VZW, published 2015).

T1: Recombinant mouse MMR (R&D systems) (mouse, UniProt Q61830 20-1388)
T1 construct: Antigen of the PE-ELISA and the SPR; also called mMMR; recombinant mMMR
T1 sequence: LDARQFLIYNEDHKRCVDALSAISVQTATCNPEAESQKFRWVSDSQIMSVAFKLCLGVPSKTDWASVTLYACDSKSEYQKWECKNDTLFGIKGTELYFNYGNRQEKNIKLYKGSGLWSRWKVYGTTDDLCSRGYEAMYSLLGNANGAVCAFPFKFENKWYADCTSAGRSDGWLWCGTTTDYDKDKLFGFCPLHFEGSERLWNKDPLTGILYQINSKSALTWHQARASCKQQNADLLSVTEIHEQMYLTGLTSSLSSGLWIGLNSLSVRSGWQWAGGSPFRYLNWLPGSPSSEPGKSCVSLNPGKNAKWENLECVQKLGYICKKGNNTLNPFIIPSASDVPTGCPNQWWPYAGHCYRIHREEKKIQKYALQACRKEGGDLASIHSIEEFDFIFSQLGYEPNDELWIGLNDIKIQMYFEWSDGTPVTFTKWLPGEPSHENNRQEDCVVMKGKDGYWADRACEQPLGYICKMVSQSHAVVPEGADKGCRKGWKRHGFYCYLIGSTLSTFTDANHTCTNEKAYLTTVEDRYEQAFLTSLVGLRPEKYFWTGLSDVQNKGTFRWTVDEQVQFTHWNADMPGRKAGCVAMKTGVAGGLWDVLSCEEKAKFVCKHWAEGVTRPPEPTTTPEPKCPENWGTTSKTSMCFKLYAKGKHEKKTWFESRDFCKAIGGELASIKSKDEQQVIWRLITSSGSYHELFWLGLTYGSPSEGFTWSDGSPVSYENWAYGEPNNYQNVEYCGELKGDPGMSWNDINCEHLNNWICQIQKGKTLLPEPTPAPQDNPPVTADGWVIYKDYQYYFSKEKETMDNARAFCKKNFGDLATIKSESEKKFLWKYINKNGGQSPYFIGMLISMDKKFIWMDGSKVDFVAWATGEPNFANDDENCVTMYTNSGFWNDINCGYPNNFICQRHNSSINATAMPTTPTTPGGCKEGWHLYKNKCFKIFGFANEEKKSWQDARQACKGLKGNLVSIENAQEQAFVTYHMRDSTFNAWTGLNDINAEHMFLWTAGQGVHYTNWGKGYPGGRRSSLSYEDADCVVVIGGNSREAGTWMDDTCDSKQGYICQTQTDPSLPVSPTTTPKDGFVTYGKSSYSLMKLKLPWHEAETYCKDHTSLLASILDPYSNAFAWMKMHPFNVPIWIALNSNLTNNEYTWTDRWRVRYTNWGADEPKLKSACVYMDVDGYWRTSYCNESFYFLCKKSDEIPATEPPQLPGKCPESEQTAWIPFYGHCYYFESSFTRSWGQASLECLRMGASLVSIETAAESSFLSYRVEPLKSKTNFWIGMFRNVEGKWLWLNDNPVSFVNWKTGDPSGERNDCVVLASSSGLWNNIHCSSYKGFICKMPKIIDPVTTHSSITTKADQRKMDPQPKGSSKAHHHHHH

T2: Recombinant human MMR (R&D systems) (human, UniProt P22897 19-1383)
T2 construct: Antigen of the PE-ELISA and the SPR; also called hMMR; recombinant hMMR
T2 sequence: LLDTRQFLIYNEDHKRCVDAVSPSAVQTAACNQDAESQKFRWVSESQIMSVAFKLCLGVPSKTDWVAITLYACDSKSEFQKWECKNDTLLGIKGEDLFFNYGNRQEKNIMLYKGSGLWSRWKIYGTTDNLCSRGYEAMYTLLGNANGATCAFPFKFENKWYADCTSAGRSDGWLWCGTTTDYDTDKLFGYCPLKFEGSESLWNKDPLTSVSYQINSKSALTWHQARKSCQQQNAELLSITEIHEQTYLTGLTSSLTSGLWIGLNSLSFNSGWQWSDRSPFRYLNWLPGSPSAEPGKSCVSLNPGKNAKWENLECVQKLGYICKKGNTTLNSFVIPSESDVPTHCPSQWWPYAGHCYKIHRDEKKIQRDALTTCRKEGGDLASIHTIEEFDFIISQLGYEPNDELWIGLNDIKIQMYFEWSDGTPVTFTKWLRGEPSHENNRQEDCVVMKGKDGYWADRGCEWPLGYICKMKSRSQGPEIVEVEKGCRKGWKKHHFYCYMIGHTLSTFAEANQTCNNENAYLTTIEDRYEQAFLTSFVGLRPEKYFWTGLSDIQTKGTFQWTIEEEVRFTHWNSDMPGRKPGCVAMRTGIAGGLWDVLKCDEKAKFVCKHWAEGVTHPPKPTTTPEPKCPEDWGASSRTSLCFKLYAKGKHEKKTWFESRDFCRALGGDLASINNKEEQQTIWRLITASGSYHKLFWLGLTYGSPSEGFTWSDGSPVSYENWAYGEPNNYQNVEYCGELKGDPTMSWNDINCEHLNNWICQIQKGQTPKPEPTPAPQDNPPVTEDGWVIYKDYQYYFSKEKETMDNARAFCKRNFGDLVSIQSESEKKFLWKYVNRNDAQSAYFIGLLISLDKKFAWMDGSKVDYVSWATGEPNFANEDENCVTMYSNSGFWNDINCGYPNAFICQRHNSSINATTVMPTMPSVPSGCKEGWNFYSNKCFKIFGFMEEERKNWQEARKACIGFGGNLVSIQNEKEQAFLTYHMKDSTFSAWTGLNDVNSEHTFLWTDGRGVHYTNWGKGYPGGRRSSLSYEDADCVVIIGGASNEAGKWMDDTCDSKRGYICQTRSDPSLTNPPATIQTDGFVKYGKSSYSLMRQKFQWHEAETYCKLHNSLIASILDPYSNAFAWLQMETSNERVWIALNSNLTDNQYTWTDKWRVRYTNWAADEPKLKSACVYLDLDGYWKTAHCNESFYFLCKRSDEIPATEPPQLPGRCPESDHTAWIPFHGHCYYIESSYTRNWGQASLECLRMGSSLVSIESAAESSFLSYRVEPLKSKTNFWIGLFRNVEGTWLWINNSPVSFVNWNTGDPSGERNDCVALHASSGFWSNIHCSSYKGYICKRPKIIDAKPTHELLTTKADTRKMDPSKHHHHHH


Experiments:
[1] = target: T1, Recombinant mouse MMR (R&D systems); assay: PE-ELISA: periplasmic extract of the clone on plate-coated mouse MMR, OD405; background = irrelevant milk-blocking proteins
Protocol: (§1) Specific sdAb phages were enriched by several consecutive rounds of in vitro selection on antigen coated to wells of microtiter plates (Nunc). For isolation of human/mouse MMR cross-reactive Nbs, screening was performed using human and mouse MMR alternatingly. Bound phage particles were eluted with 100 mM triethylamine (pH 11.0), immediately neutralized with 1 M Tris-HCl (pH 7.4) and used to infect E. coli TG1 cells. Individual colonies were picked and expression of recombinant sdAb-M13 protein III by addition of 1 mM isopropyl-β-D-thiogalac-topyranoside (IPTG). The periplasmic extract of each clone was subsequently tested in ELISA for human MMR recognition with non-specific antigen coated wells serving as a negative control. Human/mouse MMR cross-reactive Nbs were also screened in a similar fashion against mouse MMR, only clones reactive with both human and mouse antigens were withheld as cross-reactive Nbs. Each ELISA was performed on plates coated with 1 μg/ml MMR in 100 mM NaHCO₃ buffer pH=8.8. After coating the plates are washed with PBS+0.05% TWEEN®-20 (PBST) and blocked for 2 hours with PBS+0.05% TWEEN® 20+2% non-fat dry milk powder (Nestle) (PBSM). The PE extracts are then incubated for 1 hour on the plate and then washed with PBST followed by 1 hour incubation of 0.5 μg/ml mouse anti-HA tag antibody (16B12, Covance) in PBSM. After washing with PBST, 1.5 μg/ml alkaline phosphatase conjugated anti-mouse antibody (Sigma) in PBSM in added to the plate for 1 hour followed by PBST washing. Finally, the ELISA is developed using 2 mg/ml alkaline phosphatase substrate (Sigma) in AP-buffer (100 mM NaCl, 50 mM MgCl₂, 100 mM Tris pH=9.5) and the optical density signal at 405 nm is measured.
(§2) Next, anti-human/mouse MMR cross-reactive sdAbs were generated (see also Material and Method section). The anti-human/anti mouse MMR phage bank was alternatingly screened on human and mouse MMR for a total of four rounds, resulting in up to 100-fold enrichments for hMMR/mMMR reactive phages from the second panning round. Therefore, 188 colonies from the second and third rounds were selected for PE-expression. These PE-extracts were used in PE-ELISAs to determine which clones react effectively to MMR, clones were selected after the ELISA on hMMR (FIG. 2). These clones were then screened for binding on mouse MMR (FIG. 3).

[2] = target: T2, Recombinant human MMR (R&D systems); assay: PE-ELISA: periplasmic extract of the clone on plate-coated human MMR, OD405; background = irrelevant milk-blocking proteins
Protocol: as §1, §2

Row | Binder | binding result [1] | binding result [2]
1 | NbhmMMRm27.95 (VHH, Only tested as periplasmic extract in PE-ELISA; clone carries C-terminal HA and 6xHis tag) VHH: QVQLQESGGRLGAAGGSLRLSCTASGFPFNIYPMSWVRQAPGKGFEWVSYISHGGTTTDYSDAVKGRFTISRDNAKNRLYLQMDSLKPEDTAVYFCAQGYARLMTDSELVRGQGTQVTVSS | binds | binds
2 | NbhmMMRm25.86 (VHH, Only tested as periplasmic extract in PE-ELISA; clone carries C-terminal HA and 6xHis tag) VHH: QVQLQESGGGLVQPGGSLRLSCAGSGFTVSTSMINWARQVPGKELEWLVDVLPSGSTYYADPVKGRFTISRDNAQNTIYLQMNYLKPEDTAIYYCAINRETMPPFRGQGTQVTVSS | binds | binds
3 | NbhmMMRm18.63 (VHH, Only tested as periplasmic extract in PE-ELISA; clone carries C-terminal HA and 6xHis tag) VHH: QVQLQESGGGLVQPGGSLRLSCAPSGSIISINAMAWYRQAPGKERELVAAISSGGSTYYADSVKGRFTISGDIAKNLLWLQMNSLKPEDTAMYYCAPGGGWRPGAWGQGTQVTVSS | binds | binds

Next, values leading:

Row | binding result [1] | binding result [2] | Binder
4 | binds | binds | NbhmMMRm13.89 (VHH, Only tested as periplasmic extract in PE-ELISA; clone carries C-terminal HA and 6xHis tag) VHH: QVQLQESGGGLVQPGGSLRLSCAASGSIFSINAWGWYRQAPGKQRELVAEITSSGSTNYADSVKGRFTISGDNAKNSVYLHMNNLEPEDTAVYYCKAVAVTFTTPRSDYWGRGTQVTVSS
5 | binds | binds | NbhmMMRm8.67 (VHH, Only tested as periplasmic extract in PE-ELISA; clone carries C-terminal HA and 6xHis tag) VHH: QVQLQESGGGLVQAGDSLRLSCLATGSMFSINAWGWYRQAPGKQRELVASITSGGGSTEYAESVKGRFTISRDSAKNMLYLQMNSLRPEDTAVYYCNAERWDGYALGYSPNHGSGHRPYNYWGQGTQVTVSS
